According to publication PMC7289602, “Measuring ligand-cell surface receptor affinities with axial line-scanning fluorescence correlation spectroscopy” (eLife, 2020):
Blank lines part the entries; values can stand above or below the molecule they belong to.

What was measured:
[1] = molecular target: LRP6-mCherry, stably expressed in NCI-H1703 cells (human) (UniProt O75581); assay: dual-color axial line-scanning fluorescence cross-correlation spectroscopy (axial lsFCS); two receptors in the plasma membrane of live NCI-H1703 cells stably expressing LRP6-mCherry and transiently xKremen2-eGFP; fractions that co-diffuse from the ratios of cross- and autocorrelation amplitudes
LRP6-mCherry, stably expressed in NCI-H1703 cells (human), sequence (O75581 20-1613): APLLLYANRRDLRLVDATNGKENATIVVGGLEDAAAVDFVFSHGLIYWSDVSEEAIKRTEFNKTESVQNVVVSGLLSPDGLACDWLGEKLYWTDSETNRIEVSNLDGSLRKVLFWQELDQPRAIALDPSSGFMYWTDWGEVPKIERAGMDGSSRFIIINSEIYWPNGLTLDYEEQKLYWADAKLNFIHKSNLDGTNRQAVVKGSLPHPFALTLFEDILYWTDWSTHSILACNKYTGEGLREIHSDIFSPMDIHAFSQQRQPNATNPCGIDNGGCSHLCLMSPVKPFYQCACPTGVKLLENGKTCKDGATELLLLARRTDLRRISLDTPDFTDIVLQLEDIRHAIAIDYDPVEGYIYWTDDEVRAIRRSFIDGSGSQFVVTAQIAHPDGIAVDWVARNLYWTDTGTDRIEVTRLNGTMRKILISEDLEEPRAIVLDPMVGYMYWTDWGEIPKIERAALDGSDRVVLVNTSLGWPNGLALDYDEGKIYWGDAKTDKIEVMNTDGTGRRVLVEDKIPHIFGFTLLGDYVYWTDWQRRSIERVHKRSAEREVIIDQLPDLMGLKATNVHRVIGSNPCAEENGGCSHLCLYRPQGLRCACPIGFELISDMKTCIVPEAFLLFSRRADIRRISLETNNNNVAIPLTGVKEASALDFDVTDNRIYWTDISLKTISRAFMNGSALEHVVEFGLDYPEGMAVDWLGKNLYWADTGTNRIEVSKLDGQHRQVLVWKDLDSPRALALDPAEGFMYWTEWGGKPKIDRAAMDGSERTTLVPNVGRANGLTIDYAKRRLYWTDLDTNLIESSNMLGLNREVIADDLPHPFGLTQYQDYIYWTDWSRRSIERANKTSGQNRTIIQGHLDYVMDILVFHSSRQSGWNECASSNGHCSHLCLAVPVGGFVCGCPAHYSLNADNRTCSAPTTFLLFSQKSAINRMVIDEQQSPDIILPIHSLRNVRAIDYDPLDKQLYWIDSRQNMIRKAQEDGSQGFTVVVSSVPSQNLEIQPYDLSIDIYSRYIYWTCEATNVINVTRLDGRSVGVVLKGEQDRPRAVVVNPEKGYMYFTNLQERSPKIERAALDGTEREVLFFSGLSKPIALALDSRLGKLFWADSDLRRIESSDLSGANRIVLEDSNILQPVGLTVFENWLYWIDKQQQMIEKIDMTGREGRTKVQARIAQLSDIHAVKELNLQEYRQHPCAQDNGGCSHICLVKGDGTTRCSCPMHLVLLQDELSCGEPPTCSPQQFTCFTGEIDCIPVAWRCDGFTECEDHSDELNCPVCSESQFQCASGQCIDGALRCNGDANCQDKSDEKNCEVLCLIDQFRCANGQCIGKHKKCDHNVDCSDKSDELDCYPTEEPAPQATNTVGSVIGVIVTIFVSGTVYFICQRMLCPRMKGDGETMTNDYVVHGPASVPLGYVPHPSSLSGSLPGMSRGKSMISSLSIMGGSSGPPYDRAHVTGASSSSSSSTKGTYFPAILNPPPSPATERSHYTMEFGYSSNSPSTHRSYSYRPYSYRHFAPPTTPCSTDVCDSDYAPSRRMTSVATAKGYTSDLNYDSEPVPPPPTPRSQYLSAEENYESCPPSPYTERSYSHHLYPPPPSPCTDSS

[2] = molecular target: T1, LRP6-mCherry, stably expressed in NCI-H1703 cells (human, UniProt O75581 20-1613); assay: dual-color axial line-scanning fluorescence cross-correlation spectroscopy (axial lsFCS); live NCI-H1703 cells stably expressing LRP6-mCherry, ligand in conditioned medium at varied concentrations, 37°C, 5% CO2, 60 s scans, with background and photobleaching correction, fit of Γ(CL) with Equation 5; conditions: partners not purified
T1 construct: lipoprotein-receptor related protein 6 (LRP6), human; the ORF of the hLRP6-mCherry fusion inserted into pEF1a-IRES-Neo; Same fusion ORF as m4 and m5; receptor density 45 ± 23 per µm^2; also called hLRP6-mCherry; exogenous LRP6-mCherry; source: NCI-H1703, stably transfected clonal line (pEF1a-hLRP6-mCherry-IRES-Neo, G418 selection), on live cells; not shown: mCherry, C-terminal, kept
T1 sequence (O75581 20-1613): as above

[3] = molecular target: T2, endogenously tagged LRP6-mCherry in CRISPR/Cas9 edited NCI-H1703 cells (human (endogenous in NCI-H1703), UniProt O75581 20-1613); assay: dual-color axial line-scanning fluorescence cross-correlation spectroscopy (axial lsFCS); live CRISPR/Cas9 edited NCI-H1703 cells with endogenously tagged LRP6, ligand in conditioned medium at varied concentrations, 37°C, 5% CO2, 60 s scans, fit of Γ(CL) with Equation 5; conditions: partners not purified
T2 construct: lipoprotein-receptor related protein 6 (LRP6), human, expressed from the endogenous locus of NCI-H1703 cells; Untagged LRP6 from the unedited allele is also present; receptor density 18 ± 9 per µm^2; source: NCI-H1703, CRISPR/Cas9 edited at the endogenous LRP6 locus (exon 23), heterozygous clone, on live cells
T2 sequence (O75581 20-1613): as above

[4] = molecular target: T3, LRP6-mCherry, transiently expressed in HEK293T cells (human, UniProt O75581 20-1613); assay: time-lapse spinning disk confocal imaging of ligand fluorescence on the cell membrane; dissociation after two washing steps, frames every 300 s for up to 3 hr, average of 50 cells; kon from a regression of apparent rate coefficients at 3.5 and 7 nM with this koff fixed; 37°C, 5% CO2; conditions: partners not purified
T3 construct: lipoprotein-receptor related protein 6 (LRP6), human; plasmid pCS2+hLRP6-mCherry (Dörlich et al., 2015); Receptor density 370 ± 150 or 1080 ± 470 per µm^2 in the two series; MesD was co-transfected; also called hLRP6-mCherry; lipoprotein-receptor related protein 6; source: HEK293T, transiently transfected (pCS2+hLRP6-mCherry, with MesD 1:6), on live cells; not shown: mCherry, C-terminal, kept
T3 sequence (O75581 20-1613): as above

[5] = molecular target: T1, LRP6-mCherry, stably expressed in …; assay: dual-color axial line-scanning fluorescence cross-correlation spectroscopy (axial lsFCS); live NCI-H1703 cells stably expressing LRP6-mCherry, ligand in conditioned medium at varied concentrations, 37°C, 5% CO2, 60 s scans, with background and photobleaching correction, fit of Γ(CL) with Equation 5; conditions: partners not purified; remark: listed apart in the source
[6] = molecular target: T1, LRP6-mCherry, stably expressed in …; assay: dual-color axial line-scanning fluorescence cross-correlation spectroscopy (axial lsFCS); the same data as a3 (NCI-H1703 stably expressing LRP6-mCherry), analysed without prior background correction of the intensity time traces; conditions: partners not purified
[7] = molecular target: T3, LRP6-mCherry, transiently expressed in …; assay: dual-color axial line-scanning fluorescence cross-correlation spectroscopy (axial lsFCS); live HEK293T cells transiently expressing the receptor, ligand in conditioned medium at varied concentrations (0.01-220 nM), 37°C, 5% CO2, 60 s scans, fit of Γ(CL) with Equation 5; conditions: partners not purified
[8] = molecular target: T4, endogenously tagged LRP6-tdTomato in CRISPR/Cas9 edited NCI-H1703 cells (human (endogenous in NCI-H1703), UniProt O75581 20-1613); assay: dual-color axial line-scanning fluorescence cross-correlation spectroscopy (axial lsFCS); live CRISPR/Cas9 edited NCI-H1703 cells with endogenously tagged LRP6, ligand in conditioned medium at varied concentrations, 37°C, 5% CO2, 60 s scans, fit of Γ(CL) with Equation 5; conditions: partners not purified
T4 construct: lipoprotein-receptor related protein 6 (LRP6), human, expressed from the endogenous locus of NCI-H1703 cells; Untagged LRP6 from the unedited allele is also present; receptor density 21 ± 15 per µm^2; source: NCI-H1703, CRISPR/Cas9 edited at the endogenous LRP6 locus (exon 23), heterozygous clone, on live cells; not shown: tdTomato (after the linker AS from the NheI site), C-terminal, kept
T4 sequence (O75581 20-1613): as above

[9] = molecular target: T3, LRP6-mCherry, transiently expressed in …; assay: time-lapse spinning disk confocal imaging of ligand fluorescence on the cell membrane; association: HEK293T cells expressing LRP6-mCherry, conditioned medium with DKK1-eGFP at different concentrations, 37°C, 5% CO2, frames every 100 s for 1 hr, linear regression of apparent rate coefficients; the authors call such measurements on individual cells highly unreliable; conditions: partners not purified
[10] = molecular target: (Xenopus laevis) xKremen2-mCherry (Xenopus laevis); assay: dual-color axial line-scanning fluorescence cross-correlation spectroscopy (axial lsFCS); live NCI-H1703 cells transiently expressing the receptor (xKremen2-mCherry without or with unlabeled LRP6; apparent affinity with LRP6), ligand in conditioned medium at varied concentrations, 37°C, 5% CO2, 60 s scans, fit of Γ(CL) with Equation 5
[11] = molecular target: xKremen2-mCherry co-expressed with unlabeled LRP6 (Xenopus laevis | human) (UniProt O75581); assay: as above
[12] = molecular target: T5, LRP6-mCherry, transiently expressed in NCI-H1703 cells (human, UniProt O75581 20-1613); assay: as above; conditions: partners not purified
T5 construct: lipoprotein-receptor related protein 6 (LRP6), human; plasmid pCS2+hLRP6-mCherry (Dörlich et al., 2015); Same construct as m4 in another cell line; receptor density 140 ± 80 per µm^2; also called hLRP6-mCherry; source: NCI-H1703, transiently transfected (pCS2+hLRP6-mCherry, with MesD 1:6), on live cells; not shown: mCherry, C-terminal, kept
T5 sequence (O75581 20-1613): as above

[13] = molecular target: T6, LRP6-tdTomato, transiently expressed in NCI-H1703 cells (human, UniProt O75581 20-1613); assay: as above; conditions: partners not purified
T6 construct: lipoprotein-receptor related protein 6 (LRP6), human; pCS2+hLRP6-tdTomato, made by replacing the mCherry ORF of pCS2+hLRP6-mCherry; Receptor density 106 ± 52 per µm^2; also called hLRP6-tdTomato; source: NCI-H1703, transiently transfected (pCS2+hLRP6-tdTomato, with MesD 1:6), on live cells; not shown: tdTomato, C-terminal, kept
T6 sequence (O75581 20-1613): as above

Molecule: (Xenopus laevis) xKremen2-eGFP (receptor)
bound fraction of LRP6 receptors FR, corrected assuming an eGFP maturation yield of 0.9 [1]: 0.26 | bound fraction of xKremen2 receptors FG, corrected assuming an mCherry maturation yield of 0.5 [1]: 0.18 | percent of LRP6 receptors co-diffusing with xKremen2 [1]: 25% | percent of xKremen2 receptors co-diffusing with LRP6 [1]: 15%

B2: human Dickkopf1 fused to eGFP (DKK1-eGFP) (ligand, UniProt O94907 32-266, looked up)
chain: TLNSVLNSNAIKNLPPPLGGAAGHPGSAVSAAPGILYPGGNKYQTIDNYQPYPCAEDEECGTDEYCASPTRGGDAGVQICLACRKRRKRCMRHAMCCPGNYCKNGICVSSDQNHFRGEIEETITESFGNDHSTLDGYSRRTTLSSKMYHTKGQEGSVCLRSSDCASGLCCARHFWSKICKPVLKEGQVCTKHRRKGSHGLEIFQRCYCGEGLSCRIQKDHHQASNSSRLHTCQRH
notes: Dickkopf1 (DKK1), human; also called hDKK1-eGFP
Kd [3]: 0.09 ± 0.01 nM | Kd [4]: 0.4 ± 0.1 nM | koff [4]: 0.00026 s⁻¹ | kon [4]: 670000 M⁻¹ s⁻¹ | Kd [5]: 0.08 ± 0.01 nM | Kd [6]: 0.1 ± 0.02 nM | Kd [7]: 0.49 ± 0.09 nM | Kd [8]: 0.1 ± 0.02 nM | Kd [9]: 2.6 ± 0.1 nM | koff [9]: 0.0013 s⁻¹ | kon [9]: 500000 M⁻¹ s⁻¹ | Kd [10]: 10.3 nM | Kd [11]: 0.54 nM | Kd [12]: 0.22 ± 0.02 nM | Kd [13]: 0.22 ± 0.03 nM

Other lines, results leading:

Kd [2]: 0.26 ± 0.04 nM
B1: human Dickkopf2 fused to eGFP (DKK2-eGFP) (ligand, UniProt Q9UBU2 34-259, looked up)
chain: KLNSIKSSLGGETPGQAANRSAGMYQGLAFGGSKKGKNLGQAYPCSSDKECEVGRYCHSPHQGSSACMVCRRKKKRCHRDGMCCPSTRCNNGICIPVTESILTPHIPALDGTRHRDRNHGHYSNHDLGWQNLGRPHTKMSHIKGHEGDPCLRSSDCIEGFCCARHFWTKICKPVLHQGEVCTKQRKKGSHGLEIFQRCDCAKGLSCKVWKDATYSSKARLHVCQKI
notes: Dickkopf2 (DKK2), human; also called hDKK2-eGFP

Kd [7]: 0.46 ± 0.09 nM
B3: human Dickkopf1 fused to eGFP and a SNAP-tag domain (DKK1-eGFP-SNAP) (ligand, UniProt O94907 32-266, looked up)
chain: B2 chain
notes: Dickkopf1 (DKK1), human; made from pCS2+hDKK1-eGFP by adding a linker and the SNAP-tag gene; SNAP-tag domain is 19.4 kDa; also called hDKK1-eGFP-SNAP; source: conditioned medium
